Measurements taken from patent US5766897A, “Cysteine-pegylated proteins” (Incyte Pharmaceuticals, Inc., priority 1995, dated 1998).
Where a chain is given by its changes, count along the chain named. Names may count otherwise.

B1: PN-1 produced in insect cells: glycosylated PN-1 produced in insect cells using a baculovirus expression system (protein, UniProt P07093 20-398, looked up)
Glia-derived nexin: SHFNPLSLEELGSNTGIQVFNQIVKSRPHDNIVISPHGIASVLGMLQLGADGRTKKQLAMVMRYGVNGVGKILKKINKAIVSKKNKDIVTVANAVFVKNASEIEVPFVTRNKDVFQCEVRNVNFEDPASACDSINAWVKNETRDMIDNLLSPDLIDGVLTRLVLVNAVYFKGLWKSRFQPENTKKRTFVAADGKSYQVPMLAQLSVFRCGSTSAPNDLWYNFIELPYHGESISMLIALPTESSTPLSAIIPHISTKTIDSWMSIMVPKRVQVILPKFTAVAQTDLKEPLKVLGITDMFDSSKANFAKITTGSENLHVSHILQKAKIEVSEDGTKASAATTAILIARSSPPWFIVDRPFLFFIRHNPTGAVLFMGQINKP
modifications: insect cell glycosylated
notes: glycosylated PN-1 produced in insect cells using a baculovirus expression system
B2: N99C (conjugate, UniProt P07093 20-398, looked up, variant N99C)
Glia-derived nexin: B1 Glia-derived nexin with N99C
modifications: PEG
B3: S263C (conjugate, UniProt P07093 20-398, looked up, variant S263C)
Glia-derived nexin: B1 Glia-derived nexin with S263C
modifications: PEG
B4: D147C (conjugate, UniProt P07093 20-398, looked up, variant D147C)
Glia-derived nexin: B1 Glia-derived nexin with D147C
modifications: PEG
B5: C117S;C131S;C209S (protein, UniProt P07093 20-398, looked up, variant C117S C131S C209S)
Glia-derived nexin: B1 Glia-derived nexin with C117S, C131S, C209S
B6: H252C (conjugate, UniProt P07093 20-398, looked up, variant H252C)
Glia-derived nexin: B1 Glia-derived nexin with H252C
modifications: PEG
B7: E125C (conjugate, UniProt P07093 20-398, looked up, variant E125C)
Glia-derived nexin: B1 Glia-derived nexin with E125C
modifications: PEG
B8: N304C (conjugate, UniProt P07093 20-398, looked up, variant N304C)
Glia-derived nexin: B1 Glia-derived nexin with N304C
modifications: PEG
B9: R63C (conjugate, UniProt P07093 20-398, looked up, variant R63C)
Glia-derived nexin: B1 Glia-derived nexin with R63C
modifications: PEG
B10: N85C (conjugate, UniProt P07093 20-398, looked up, variant N85C)
Glia-derived nexin: B1 Glia-derived nexin with N85C
modifications: PEG
B11: G52C (conjugate, UniProt P07093 20-398, looked up, variant G52C)
Glia-derived nexin: B1 Glia-derived nexin with G52C
modifications: PEG
B12: cysteine-PEGylated N99C;N140C: N99C;N140C PN-1 variant PEGylated at cysteines by reaction with Maleimido-PEG (PEG MW about 5,000) (conjugate, UniProt P07093 20-398, looked up, variant N99C N140C)
Glia-derived nexin: B1 Glia-derived nexin with N99C, N140C
modifications: cysteine-linked maleimido-PEG 5 kDa
B13: S1C (conjugate, UniProt P07093 20-398, looked up, variant S1C)
Glia-derived nexin: B1 Glia-derived nexin with S1C
modifications: PEG
B14: D192C (conjugate, UniProt P07093 20-398, looked up, variant D192C)
Glia-derived nexin: B1 Glia-derived nexin with D192C
modifications: PEG
B15: N99C;N140C (protein, UniProt P07093 20-398, looked up, variant N99C N140C)
Glia-derived nexin: B1 Glia-derived nexin with N99C, N140C
B16: E230C (conjugate, UniProt P07093 20-398, looked up, variant E230C)
Glia-derived nexin: B1 Glia-derived nexin with E230C
modifications: PEG

Key:
Thrombin = Thrombin (Homo sapiens, UniProt P00734); assay: thrombin inhibition activity assay (D.4), specific activity; type: biochemical; conditions: for ACTIVITY, AFTER PEG MODIFICATION: after cysteine-PEGylation with Maleimido-PEG; for REL TO WT, BEFORE PEG MODIFICATION: activity relative to wild type PN-1; for REL TO ACTIVITY BEFORE PEG, AFTER PEG MODIFICATION: cysteine-PEGylated protein relative to same protein before PEGylation; for REL TO WT, AFTER PEG MODIFICATION: cysteine-PEGylated protein relative to wild type PN-1
Experimental: Refolded or soluble protein was tested for capacity to inhibit thrombin in a standard assay. Briefly, serial 2-fold dilutions of PN-1 variant were added to microtiter plate wells (50 μl/well), followed by 50 μl of a 30 μg/ml heparin solution, followed by 1 NIH unit of thrombin in 50 μl. These were allowed to incubate at 25° C. for 15 minutes. Residual thrombin activity was measured by the addition of 50 μl S-2238 (Kabi Pharmaceuticals) at 0.625 mg/ml. PN-1 variants were tested for their ability to inhibit urokinase using the substrate S-2444, plasmin using the substrate S-2390, tPA using the substrate S2288, Factor Xa using the substrate S-2222 or S-2765, kallikrein using the substrate S-2302, human neutrophil elastase using s-AAPV-pna (Sigma), cathepsin G using s-AAPF-pna (Sigma) in a similar manner, with or without the addition of heparin.
Each of the PN-1 site-directed mutant proteins, as well as wild type PN-1, were modified by cysteine-PEGylation using the protocol described in F.2. The activity of wild type PN-1, each of the PN-1 site-directed mutants, and the cysteine-PEGylated wild type and mutant proteins was determined using the assay described in D.4.

[1] = serum half-life after tail vein injection, sandwich ELISA; conditions: rat
Description: The PN-1 variant N99C;N140C was PEGylated by reaction with the Maleimido-PEG reagent as described above in section G.2. Small scale reactions were first performed to determine the excess of Maleimido-PEG reagent required to drive the reaction to completion, i.e., to PEGylate both the N99C and N140C sites of the protein. The final PEGylation reaction contained about a 3-fold excess of Maleimido-PEG over the amount of N99C;N140C protein in the reaction mixture. Cysteine-PEGylated protein was purified by ion exchange chromatography as described in Section D3 above with an additional final Mono-S ion exchange step. The bis-modified,cysteine-PEGylated N99C;140C protein and unmodified N99C;N140C protein were resuspended in 50 mM PIPES pH 6.7, 150 mM NaCl, 10% glycerol.
The serum half-life of the PEGylated N99C;N140C variant was compared to the half-life of the unmodified N99C;N140C variant by injecting a 0.3 ml of a 3 mg/ml solution containing either the cysteine-PEGylated N99C;N140C or unmodified N99C;N140C into the tail vein of 200 g rats. At 2 min, 10 min, 30 min, 60 min, and 120 min after injection, a 0.5 ml blood sample was collected onto EDTA anticoagulant. The blood samples were centrifuged to separate plasma from blood cells, and the concentration of cysteine-PEGylated N99C;N140C or unmodified N99C;N140C determined by sandwich ELISA as described by Evans et al. (1991) J. Biol. Chem. 266:22307-22312, using a rabbit polyclonal antibody.

Molecule	specific activity vs thrombin and association kinetics, including rate enhancement effect of heparin (Thrombin; compared with authentic PN-1)	ACTIVITY, AFTER PEG MODIFICATION (Thrombin)	SPECIFIC ACTIVITY, BEFORE PEG MODIFICATION (Thrombin)	REL TO WT, BEFORE PEG MODIFICATION (Thrombin)	REL TO ACTIVITY BEFORE PEG, AFTER PEG MODIFICATION (Thrombin)	REL TO WT, AFTER PEG MODIFICATION (Thrombin)	enhancement of t1/2 by cysteine-PEGylation ([1]; in vivo)	total administered amount present in the blood stream ([1]; in vivo, 60 min)	t1/2 (serum half-life) ([1]; in vivo, iv)	change of specific activity with increasing PEGylation reagent in reaction mixture (FIG. 4) (Thrombin; increasing ratio of PEG reagent to protein)	activity retained relative to unmodified PN-1 (Thrombin; reacted at a ratio of 3:1 Maleimido-PEG to protein)	t1/2 (serum half-life) ([1]; tail vein injection)	total administered amount present in the blood stream ([1]; tail vein injection, 60 min time point)
B1	indistinguishable from authentic PN-1	–	–	–	–	–	–	–	–	–	–	–	–
B2	–	0.50 NIH units of thrombin inhibited per μg PN1 (variant)	0.20 NIH units of thrombin inhibited per μg PN1 (variant)	0.40	2.5	1.0	–	–	–	–	–	–	–
B3	–	0.093 NIH units of thrombin inhibited per μg PN1 (variant)	0.05 NIH units of thrombin inhibited per μg PN1 (variant)	0.1	1.86	0.19	–	–	–	–	–	–	–
B4	–	0.125 NIH units of thrombin inhibited per μg PN1 (variant)	0.063 NIH units of thrombin inhibited per μg PN1 (variant)	0.125	2	0.25	–	–	–	–	–	–	–
B5	–	0.50 NIH units of thrombin inhibited per μg PN1 (variant)	0.050 NIH units of thrombin inhibited per μg PN1 (variant)	–	–	–	–	–	–	–	–	–	–
B6	–	0.25 NIH units of thrombin inhibited per μg PN1 (variant)	0.10 NIH units of thrombin inhibited per μg PN1 (variant)	0.20	2.5	0.50	–	–	–	–	–	–	–
B7	–	0.15 NIH units of thrombin inhibited per μg PN1 (variant)	0.095 NIH units of thrombin inhibited per μg PN1 (variant)	0.19	1.57	0.3	–	–	–	–	–	–	–
B8	–	0.17 NIH units of thrombin inhibited per μg PN1 (variant)	0.056 NIH units of thrombin inhibited per μg PN1 (variant)	0.11	3	0.33	–	–	–	–	–	–	–
B9	–	0.125 NIH units of thrombin inhibited per μg PN1 (variant)	0.050 NIH units of thrombin inhibited per μg PN1 (variant)	0.10	2.5	0.25	–	–	–	–	–	–	–
B10	–	0.040 NIH units of thrombin inhibited per μg PN1 (variant)	0.033 NIH units of thrombin inhibited per μg PN1 (variant)	0.066	1.2	0.080	–	–	–	–	–	–	–
B11	–	0.05 NIH units of thrombin inhibited per μg PN1 (variant)	0.024 NIH units of thrombin inhibited per μg PN1 (variant)	0.048	2.1	0.1	–	–	–	–	–	–	–
B12	–	–	–	–	–	–	about 6 fold	55-60%	60 to 80 min	increased with an increasing amount of the Maleimido-PEG reagent	at least 100%	–	–
B13	–	0.25 NIH units of thrombin inhibited per μg PN1 (variant)	0.10 NIH units of thrombin inhibited per μg PN1 (variant)	0.20	2.5	0.50	–	–	–	–	–	–	–
B14	–	0.91 NIH units of thrombin inhibited per μg PN1 (variant)	0.045 NIH units of thrombin inhibited per μg PN1 (variant)	0.091	2	0.18	–	–	–	–	–	–	–
B15	–	0.40 NIH units of thrombin inhibited per μg PN1 (variant)	0.20 NIH units of thrombin inhibited per μg PN1 (variant)	0.40	2	0.80	–	–	–	–	–	10 to 12 min	less than 3%
B16	–	0.20 NIH units of thrombin inhibited per μg PN1 (variant)	0.071 NIH units of thrombin inhibited per μg PN1 (variant)	0.14	2.8	0.40	–	–	–	–	–	–	–
